Reference: patent publication US20220017612A1 (TILOS THERAPEUTICS, published 2022)
Numbering of substitutions follows the chain as printed. Numbers in names are those of the source. Each block holds one binder with its values, some of them ahead of it.

Tests used:
LAP-TGFβ1 on THP-1 cells = molecular target: T1, LAP-TGFβ1 on THP-1 cells (Homo sapiens, UniProt P01137); assay: flow cytometry, THP-1 cells, % positive cells
T1 construct: cell surface, endogenous; also called LAP+ THP-1 cells
Experimental: Anti-LAP antibodies were tested for their ability to bind to THP-1 cells, a cell line derived from a patient with acute monocytic leukemia that is reported to express LRRC33. THP-1 cells were incubated with FACS buffer and human Fc block followed by incubation with varying concentrations of Alexa 647 conjugated 28G11_(hyb), 22F9_mIgG2a, 20E6_mIgG2a, 17G8_hIgG1, 24E3_hIgG1, 2C9_mIgG2a, or mIgG2a isotype control. Cells were analyzed by flow cytometry and graphed as percent positive THP-1 cells or median fluorescent intensity (MFI) of anti-LAP binding. As shown in FIGS. 10A and 10B, antibodies 22F9, 17G8, 24E3, 20E6, and 2C9 display strong binding to THP-1 cells. […] In another experiment, the binding of 20E6 mIgG2a and 7H4 hyb to THP-1 cells was compared using the methods described above. […] In a separate experiment THP-1 cells were incubated with FACS buffer and human Fc block followed by incubation with 5 ug/ml of Alexa 647 conjugated 28G11_hyb, 22F9_mIgG2a, 20E6_mIgG2a, 2C9_mIgG2a, or IgG2a isotype control. Cells were analyzed by flow cytometry and gated as single cells. Representative dot plots are shown in FIG. 10D; in these plots, antibodies were at 5 ug/ml.

[1] = molecular target: T2, human LAP-TGFβ1 overexpressed on cells (human, UniProt P01137 30-390); assay: flow cytometry; black bar HT1080-huB1, grey bar HT1080-null
T2 construct: HT1080 or P3U1 cells overexpressing wild-type human LAP-TGFβ1; also called HT1080-huB1; HT1080-hβ1
T2 sequence (P01137 30-390): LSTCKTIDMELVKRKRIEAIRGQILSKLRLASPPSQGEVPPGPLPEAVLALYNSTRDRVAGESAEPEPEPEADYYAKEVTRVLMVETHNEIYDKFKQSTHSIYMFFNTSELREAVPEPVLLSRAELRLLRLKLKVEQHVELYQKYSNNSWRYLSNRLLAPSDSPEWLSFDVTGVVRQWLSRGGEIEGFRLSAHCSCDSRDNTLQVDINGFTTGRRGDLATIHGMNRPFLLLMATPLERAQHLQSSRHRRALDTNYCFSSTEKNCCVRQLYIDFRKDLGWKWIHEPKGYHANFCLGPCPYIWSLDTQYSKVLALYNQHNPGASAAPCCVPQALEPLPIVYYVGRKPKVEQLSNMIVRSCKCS

[2] = molecular target: T3, human GARP and human LAP-TGFβ1 co-expressed on P3U1 cells (human, UniProt Q14392 20-662); assay: flow cytometry competition with biotin-28G11 (0.31 µg) on P3U1 cells with human GARP and LAP-TGFβ1
T3 construct: whole, on cells; also called P3U1 cells over-expressing human GARP and LAP-TGFβ1
T3 sequence (chain, as listed by the source, chain 1 of 2): as the sequence (P01137 30-390) above
T3 sequence (Q14392 20-662, chain 2 of 2): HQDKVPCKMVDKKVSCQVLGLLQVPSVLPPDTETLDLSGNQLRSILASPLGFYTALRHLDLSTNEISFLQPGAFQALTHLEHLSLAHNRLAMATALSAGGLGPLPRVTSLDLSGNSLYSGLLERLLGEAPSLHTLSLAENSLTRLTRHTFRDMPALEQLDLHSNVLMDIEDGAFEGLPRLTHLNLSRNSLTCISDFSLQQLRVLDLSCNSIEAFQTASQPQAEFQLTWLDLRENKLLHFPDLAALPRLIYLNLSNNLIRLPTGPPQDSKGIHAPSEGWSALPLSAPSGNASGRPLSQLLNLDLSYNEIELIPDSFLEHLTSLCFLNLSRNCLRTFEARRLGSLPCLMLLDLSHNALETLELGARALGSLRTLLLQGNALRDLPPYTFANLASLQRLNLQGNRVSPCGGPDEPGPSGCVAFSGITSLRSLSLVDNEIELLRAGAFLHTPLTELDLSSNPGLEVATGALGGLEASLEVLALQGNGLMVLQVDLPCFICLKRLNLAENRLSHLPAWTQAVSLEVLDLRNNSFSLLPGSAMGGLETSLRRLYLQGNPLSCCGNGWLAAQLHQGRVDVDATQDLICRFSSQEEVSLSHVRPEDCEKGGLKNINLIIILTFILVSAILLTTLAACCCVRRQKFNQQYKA
Experimental: In the first experiment, the various humanized 28G11 candidates were tested for retention of binding to human LAP-TGFβ1 by competition with biotin-28G11 in a flow cytometry assay.
P3U1 cells over-expressing human GARP and LAP-TGFβ1 were placed in a round-bottom 96-well plate at density of 40,000 cells/well. The cells were washed with FACS buffer (25 mM HEPES, 2 mM EDTA, 2% fetal bovine serum in Hank's Balanced Salt Solution). 50 μL of 1:200 diluted TruStain Mouse FcX (BioLegend) was added to each well, followed by 50 μL of 100 ng/μL of humanized 28G11 construct (H0L0, H0L1, H0L2, H0L3, HILO, H1L1, H1L2, H1L3, H2L0, H2L1, H2L2, H2L3). The antibody was allowed to bind for 10 minutes. 50 μL of 6.2 ng/μL of biotinylated murine hybridoma 28G11_(hyb) was added to each well. The biotinylated antibody was allowed to bind for 10 minutes, and then the cells were washed twice with FACS buffer. The cells were labeled for 15 minutes with allophytocyanin-streptavidin (BioLegend), washed twice with FACS buffer, and analyzed by flow cytometry.

LAP-TGFβ1 on U937 cells [3] = molecular target: T4, LAP-TGFβ1 on U937 cells (Homo sapiens, UniProt P01137); assay: flow cytometry dot plot against GARP, U937 cells, Alexa 647 antibody at 10 ug/ml
T4 construct: cell surface, endogenous; also called LAP+ U937 cells
T4 sequence (P01137 30-390 limits assumed): as the sequence (P01137 30-390) above
Experimental: (§1) Anti-LAP antibodies were tested for their ability to bind to U937 cells, a myeloid cell line derived from a patient with histiocytic lymphoma. U937 cells were incubated with FACS buffer and human Fc block followed by incubation with varying concentrations of Alexa 647 conjugated 28G11_hyb, 22F9_mIgG2a, or 20E6_mIgG2a. In a separate experiment U937 cells were incubated with FACS buffer and human Fc block followed by incubation with 10 ug/ml of Alexa 647 conjugated 28G11_hyb, 22F9_mIgG2a, 20E6_mIgG2a or mIgG2a isotype control (FIGS. 10E and 10F). Representative dot plots are shown in FIG. 10G; in these plots, antibodies were at 10 ug/ml.

[4] = molecular target: murine LAP-TGFβ1 overexpressed on cells (mouse, UniProt P04202 30-390); assay: cell-based or functional assay
Sequence of murine LAP-TGFβ1 overexpressed on cells (P04202 30-390): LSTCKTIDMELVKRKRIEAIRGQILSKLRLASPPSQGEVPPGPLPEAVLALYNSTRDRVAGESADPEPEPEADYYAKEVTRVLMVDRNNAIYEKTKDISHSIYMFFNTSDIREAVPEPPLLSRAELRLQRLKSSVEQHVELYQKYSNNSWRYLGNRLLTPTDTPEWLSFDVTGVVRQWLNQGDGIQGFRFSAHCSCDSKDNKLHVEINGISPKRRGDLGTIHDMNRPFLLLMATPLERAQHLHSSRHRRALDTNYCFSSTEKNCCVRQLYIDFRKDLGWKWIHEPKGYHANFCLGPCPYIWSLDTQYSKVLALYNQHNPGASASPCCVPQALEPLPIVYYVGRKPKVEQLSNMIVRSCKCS

[5] = molecular target: T2, human LAP-TGFβ1 overexpressed on cells; assay: cell-based or functional assay
LAP-TGFβ1 on U937 cells [6] = molecular target: T4, LAP-TGFβ1 on U937 cells; assay: flow cytometry, U937 cells, Alexa 647 antibody, % LAP+ cells
Experimental: as §1

[7] = molecular target: T2, human LAP-TGFβ1 overexpressed on cells; assay: flow cytometry; black bar HT1080-huB1, grey bar HT1080

T1 sequence (P01137 30-390 limits assumed): as the sequence (P01137 30-390) above

binding result (LAP-TGFβ1 on THP-1 cells): no binding (tested: 100 ug/ml)
B1: 7H4 (antibody, mouse IgG2b, kappa, V domains shown)
VH: DVQLQESGPGLVKPSQSLSLTCSVTGYSITSGYYWNWIRQFPGNKLEWMGYISYDGTNNYNPSLKNRISITRDTSKHQFFLKLNSVTTEDTATYYCARSFYNNYFDFWGQGTTLTVSS
VL: DIQMTQSPSSLSASLGGKVTITCKASQDIDKYIAWYQHKPGKGPRLLIHYTSTLQPGIPSRFSGSGSGRDYSFNISNLEPEDIATYYCLQYDNLRTFGGGTKLEIKR
notes: also called 7H4 hyb; 7H4_(hyb)

binding result [1]: binds
B2: 20E6 H0.1 construct (antibody, human IgG1, kappa, V domains shown)
VH: QVQLVQSGAEVKKPGASVKVSCKASGYTFTSYWMHWVRQAPGQGLEWMGRIDPNSGGIKYAQKFQGRATLTVDTSTSTAYMELSRLRSDDTAVYYCARWDYGGYFDVWGQGTLVTVSS
VL: DIQMTQSPSSLSASVGDRVTITCRASQDITNYLNWYQQKPGKAVKLLIYYTSRLHSGVPSRFSGSGSGTDYTLTISSLQPEDFATYFCQQGDTLPWTFGQGTKLEIKR

binding result [2]: no binding (tested: 5 µg competitor)
B3: 28G11_H2L0 (antibody, human IgG1, kappa, V domains shown)
VH: EVQLVESGGGLVQPGGSLRLSCAASGFTFTDYYMSWVRQAPGKGLEWLGFIRNKPNGYTTEYSASVKGRFTISRDNSQSSLYLQMNSLKTEDTAVYYCARYTGGGYFDYWGQGTLLTVSS
VL: B2 VL with T30S, A43V, V44P, Y71F, F83V, F87Y

binding result [2]: no binding (tested: 5 µg competitor)
B4: 28G11_H0L3 (antibody, human IgG1, kappa, V domains shown)
VH: B3 VH with T30S, L48V, N76D, Q78K, S79N, L116V
VL: B2 VL with V19L, T22S, T30S, A43T, F83V

% of cells in Q1 (antibody axis positive, GARP negative) (LAP-TGFβ1 on U937 cells [3]): 43.8% | % of cells in Q2 (antibody axis positive, GARP positive) (LAP-TGFβ1 on U937 cells [3]): 0.44% | IC50 of inhibition of TGFβ1 activation [4]: 1 µg/mL | IC50 of inhibition of TGFβ1 activation [5]: 1.8 µg/mL | EC50 (read off the curve) (LAP-TGFβ1 on U937 cells [6]): ~20 µg/mL
B5: 22F9_mIgG2a (antibody, V domains shown)
VH: QVQLQQPGAELVKPGASVKLSCKASGYTFTSYWMHWVKQRPGQGLEWIGMIHPNSGSTNYNEKFKSKATLTVDKSSSTAYMQLSSLTSEDSAVYYCAYYDYDGFFDVWGTGTTVTVSS
VL: DIVLTQSPASLDVSLGQRATISCRASKSVSTSGYSYMHWYQQKSGQPPKLLIYLASNLESGVPARFSGSGSGTHFTLNIHPVEEEDAATYYCQHSRELPYTFGGGTKLEIK
notes: also called 22F9_IgG2a

binding result [7]: binds
B6: 22F9_Y98R (antibody, human IgG1, kappa, V domains shown)
VH: B5 VH with Q5V, L11V, Q82E, T87R, S91T, Y98R, T110Q, T113L
VL: DIQLTQSPSSLSASVGDRVTITCRASKSVSTSGYSYMHWYQQKPGKAPKLLIYLASNLESGVPSRFSGSGSGTDFTLTISSLQPEDFATYYCQHSRELPYTFGGGTKVEIKR
notes: also called 22F9_H5L0 with VH Y98R
